The experiment deals with 3β-OH-Δ5-6-cholesterol-5β-reductase (5βChR) from Limosilactobacillus fermentum NKN51 (Limosilactobacillus fermentum NKN51). In words: SEC.

The values that follow come from doi:10.1101/2024.06.04.597308.

For the substance “3β-OH-Δ5-6-cholesterol-5β-reductase (5βChR) from Limosilactobacillus fermentum NKN51 (enzyme)”, the stoichiometry N (as a rule, the number of molecules, sites or subunits per partner or assembly) was 2.
